The values below come from patent US9765127.

For the test, the target named is porcine pancreatic secretory PLA2 enzyme (sPLA2 1B) (porcine) (UniProt P00592). The test can be described thus: cell-based or functional assay.
Chain of UniProt P00592 (P00592 23-146): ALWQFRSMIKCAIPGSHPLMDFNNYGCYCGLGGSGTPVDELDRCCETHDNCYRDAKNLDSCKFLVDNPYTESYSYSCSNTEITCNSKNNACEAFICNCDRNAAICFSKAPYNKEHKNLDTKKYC

The substance “recombinant human SCGB3A2 with N-terminus ATA (from UniProt Q96PL1 19-93)” came in with a % inhibition of sPLA2-1B activity (fluorescent HPLC assay, cleavage of UNIBIPY substrate) of 83%.
